This is an account of results in US20140271607A1.

For series [1], the target named is FX (blood coagulation factor X). Nature of the series: cell-based or functional assay.
The target is the same in series [2].
Series [3] deals with rsTF (recombinant soluble tissue factor) (UniProt P13726). In words: cell-based or functional assay.
For series [4], the target named is T1, rsTF (recombinant soluble tissue factor), P13726.
T1 chain: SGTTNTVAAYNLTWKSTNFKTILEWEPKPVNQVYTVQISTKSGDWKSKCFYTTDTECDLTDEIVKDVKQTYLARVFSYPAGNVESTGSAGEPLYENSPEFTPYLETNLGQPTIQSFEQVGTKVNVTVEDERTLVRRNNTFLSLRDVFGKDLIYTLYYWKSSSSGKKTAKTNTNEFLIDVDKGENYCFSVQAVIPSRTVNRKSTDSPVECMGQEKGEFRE

For “FacVII-ATKAVC-40 kDa PEG conjugate (C-terminal PEGylated) (from UniProt P08709 1-466) (enzyme)”, the EC50 (ng/mL), chromogenic assay (COASET) in series [1] is 6.06 ng/mL.
In series [1], “FacVII-ATKAVC (FacVII derivative with SOD1 residues 1-6, ATKAVC, at the C-terminus) (from UniProt P08709 1-466) (enzyme)” gave an EC50 (ng/mL), chromogenic assay (COASET) of 1.75 ng/mL; an EC50 (ng/mL), chromogenic assay (COASET), Run 1 of 1.36 ng/mL; an EC50 (ng/mL), chromogenic assay (COASET), Run 2 of 1.16 ng/mL.

B1: blood coagulation factor VII (Factor VII, FacVII), native (protein)
chain: AVFVTQEEAHGVLHRRRRANAFLEELRPGSLERECKEEQCSFEEAREIFKDAERTKLFWISYSDGDQCASSPCQNGGSCKDQLQSYICFCLPAFEGRNCETHKDDQLICVNENGGCEQYCSDHTGTKRSCRCHEGYSLLADGVSCTPTVEYPCGKIPILEKRNASKPQGRIVGGKVCPKGECPWQVLLLVNGAQLCGGTLINTIWVVSAAHCFDKIKNWRNLIAVLGEHDLSEHDGDEQSRRVAQVIIPSTYVPGTTNHDIALLRLHQPVVLTDHVVPLCLPERTFSERTLAFVRFSLVSGWGQLLDRGATALELMVLNVPRLMTQDCLQQSRKVGDSPNITEYMFCAGYSDGSKDSCKGDSGGPHATHYRGTWYLTGIVSWGQGCATVGHFGVYTRVSQYIEWLQKLMRSEPRPGVLLRAPFP
In series [1], B1 had an EC50 (ng/mL), chromogenic assay (COASET) of 1.38 ng/mL; an EC50 (ng/mL), chromogenic assay (COASET), Run 1 of 1.62 ng/mL; an EC50 (ng/mL), chromogenic assay (COASET), Run 2 of 1.67 ng/mL. Moreover, in series [2], the Relative activity, %, chromogenic assay (COASET) turned out to be 100%; the Relative activity, %, chromogenic assay (COASET), Run 1 was found to be 100%; the Relative activity, %, chromogenic assay (COASET), Run 2 came out at 100%.

B2: FacVII-40 kDa PEG (N-terminal PEGylated FacVII) (protein)
chain: B1 chain
For the molecule B2, the EC50 (ng/mL), chromogenic assay (COASET) in series [1] is 12.2 ng/mL. The Relative activity, % (compared to FacVII), chromogenic assay (COASET) in series [2] came out at 11.3%.

B3: FacVIIa-ATKAVC-PEG-Fc complex (protein, part only; not given: Fc region and PEG linker, not shown: a dimerising Fc or GST)
chain: MVSQALRLLCLLLGLQGCLAAVFVTQEEAHGVLHRRRRANAFLEELRPGSLERECKEEQCSFEEAREIFKDAERTKLFWISYSDGDQCASSPCQNGGSCKDQLQSYICFCLPAFEGRNCETHKDDQLICVNENGGCEQYCSDHTGTKRSCRCHEGYSLLADGVSCTPTVEYPCGKIPILEKRNASKPQGRIVGGKVCPKGECPWQVLLLVNGAQLCGGTLINTIWVVSAAHCFDKIKNWRNLIAVLGEHDLSEHDGDEQSRRVAQVIIPSTYVPGTTNHDIALLRLHQPVVLTDHVVPLCLPERTFSERTLAFVRFSLVSGWGQLLDRGATALELMVLNVPRLMTQDCLQQSRKVGDSPNITEYMFCAGYSDGSKDSCKGDSGGPHATHYRGTWYLTGIVSWGQGCATVGHFGVYTRVSQYIEWLQKLMRSEPRPGVLLRAPFPATKAVC
modifications: C-terminal cysteine linked to the maleimide end of 10 kDa PEG
With B3, in series [3], the Potency (IU/mL), clotting assay (StaclotVIIa-rTF) came to 1990 IU/mL; the Residual activity, % (compared to FacVIIa-ATKAVC), clotting assay (StaclotVIIa-rTF) is 44.7%; the Specific activity (IU/mg as FacVIIa), clotting assay (StaclotVIIa-rTF) came out at 20600 IU/mg.

B4: FacVIIa-ATKAVC (activated FacVII-ATKAVC derivative) (protein)
chain: AVFVTQEEAHGVLHRRRRANAFLEELRPGSLERECKEEQCSFEEAREIFKDAERTKLFWISYSDGDQCASSPCQNGGSCKDQLQSYICFCLPAFEGRNCETHKDDQLICVNENGGCEQYCSDHTGTKRSCRCHEGYSLLADGVSCTPTVEYPCGKIPILEKRNASKPQGRIVGGKVCPKGECPWQVLLLVNGAQLCGGTLINTIWVVSAAHCFDKIKNWRNLIAVLGEHDLSEHDGDEQSRRVAQVIIPSTYVPGTTNHDIALLRLHQPVVLTDHVVPLCLPERTFSERTLAFVRFSLVSGWGQLLDRGATALELMVLNVPRLMTQDCLQQSRKVGDSPNITEYMFCAGYSDGSKDSCKGDSGGPHATHYRGTWYLTGIVSWGQGCATVGHFGVYTRVSQYIEWLQKLMRSEPRPGVLLRAPFPATKAVC
For B4, in series [4], the Potency (IU/mL), clotting assay (StaclotVIIa-rTF) came to 16700 IU/mL and the Specific activity (IU/mg as FacVIIa), clotting assay (StaclotVIIa-rTF) turned out to be 46100 IU/mg.
